The data set has as its system YB-1. Nature of the data set: EMSA. The settings on record: serial-diluted protein; RNA-EMSA in Thermo Scientific kit binding buffer, 6% polyacrylamide gel; salt, pH and temperature not stated. For orientation: Mobility shift assays separate free from complexed probe on a gel.

The term Kd denotes the free concentration of one partner at which half of the binding sites on the other are occupied at equilibrium, for simple one-to-one binding. Take H19 RNA fragment 661-745 (85 nt): the equilibrium dissociation constant (Kd) worked out at 7.4 µM.

The values are drawn from PMC6771230.
